This note sets out measurements from publication PMC8511506 (2021).

This assay concerns the target Ubiquitin (UniProt P0CG47 1-76). Kind of assay: ITC.

B1: CYLD CAP-Gly2 (aa 226-313) (domain or fragment)
chain: ELPPLEINSRVSLKVGETIESGTVIFCDVLPGKESLGYFVGVDMDNPIGNWDGRFDGVQLCSFACVESTILLHINDIIPALSESVTQE
Molecule B1 gave a Kd of 136 µM.

B2: CYLD CAP-Gly3 (aa 460-582) (domain or fragment)
chain: LAMPPGNSHGLEVGSLAEVKENPPFYGVIRWIGQPPGLNEVLAGLELEDECAGCTDGTFRGTRYFTCALKKALFVKLKSCRPDSRFASLQPVSNQIERCNSLAFGGYLSEVVEENTPPKMEKE
The molecule B2 showed a Kd of 319 µM.
